Source: patent publication US20220363763A1

Target: human D1-D2 truncated LAG-3-ECD-human IgG1 fusion protein (human) (UniProt P18627)
Experiment: ELISA on coated ΔD1-D2 huFc; EC50 table has no unit, x axis Ab(nM); fit value of a flat curve

Chain of human D1-D2 truncated LAG-3-ECD-human IgG1 fusion protein (human) (P18627 253-450): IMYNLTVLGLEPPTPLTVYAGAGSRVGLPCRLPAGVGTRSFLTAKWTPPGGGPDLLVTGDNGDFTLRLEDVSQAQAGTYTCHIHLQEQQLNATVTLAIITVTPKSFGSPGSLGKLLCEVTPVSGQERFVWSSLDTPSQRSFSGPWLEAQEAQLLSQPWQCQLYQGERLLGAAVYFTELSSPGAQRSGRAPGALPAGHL

B1: 147H mouse monoclonal antibody (antibody, V domains shown)
VH: QVQLQQSGSELVRPGTSVKISCKASGYTFTNYWLGWIKQRPGHGLEWIGDIYPGGDYINYNEKFKGKATLSADTSSSTAYMQLSSLTSEDSAVYFCARPNLPGDYWGQGTSVTVSS
VL: DIVMTQAAFSNPVTLGTSASISCRSSKSLLHSNGITYLYWYLQKPGQSPQLLIYQVSNLASGVPGRFSGSGSGTDFTLRISRVEAEDVGVYYCAQNLELPWTFGGGTKLEIK
- EC50: 2.62 nM
